This is an account of results in US20170114108A1.

The assay addresses H4 tail (residues 1-30) of the H4ac indicator (UniProt P62805). As to the kind of experiment: cell-based or functional assay.

Consider “TATA binding protein (TBP)-associated factor II (TAFII) bromodomain”, for which the percent of cells discriminated from autofluorescence (FACS), H4ac indicator, 1 µM SAHA is 5 % of cells; the percent of cells discriminated from autofluorescence (FACS), H4ac indicator, 2.5 µM SAHA was 20 % of cells; the percent of cells discriminated from autofluorescence (FACS), H4ac indicator, 7.5 µM SAHA is 40 % of cells; the percent of cells discriminated from autofluorescence (FACS), H4ac indicator, 10 µM SAHA was 45 % of cells.
